# According to US20140087995A1 (published 2014):
# Numbered stars: 1 amine (or outer) side, 2 acyl side, 3 side chain; on linkers, the order of the positions; unused ones are H or OH. Bridge positions count the residues as written; N and C are the ends. Side chains are listed from the residue outwards. Ends that are not written are not given here. * marks the point of attachment. C20 diacid = O=C(O)CCCCCCCCCCCCCCCCCCC(=O)*; γGlu = O=C(O)[C@H](CCC(=O)[*:2])N[*:1]
# T1: human calcitonin receptor (human, UniProt P30988 25-474)
# T1 sequence (looked up): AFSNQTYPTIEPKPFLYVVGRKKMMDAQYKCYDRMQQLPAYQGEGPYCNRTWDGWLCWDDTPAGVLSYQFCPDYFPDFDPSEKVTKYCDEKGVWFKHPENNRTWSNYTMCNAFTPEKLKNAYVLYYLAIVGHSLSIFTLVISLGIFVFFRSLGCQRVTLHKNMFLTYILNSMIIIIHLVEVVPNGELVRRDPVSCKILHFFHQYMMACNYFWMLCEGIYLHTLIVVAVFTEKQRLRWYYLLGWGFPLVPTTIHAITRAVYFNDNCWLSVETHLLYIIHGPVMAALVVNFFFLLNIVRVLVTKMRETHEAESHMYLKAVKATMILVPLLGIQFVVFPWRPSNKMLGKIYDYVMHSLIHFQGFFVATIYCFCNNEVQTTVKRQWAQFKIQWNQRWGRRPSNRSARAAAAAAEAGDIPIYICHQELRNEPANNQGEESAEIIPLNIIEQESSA
# Target: T1, human calcitonin receptor
# Assay: cell-based or functional assay
row,Binder,hCTR funct. EC50
1,"K([γGlu-C20 diacid])CNTATCATQRLARFLRHSSPNFGAIPSSTNVGPNTY-NH2 (disulfide 2-7; N-terminus assumed; SMILES CC[C@H](C)[C@H](NC(=O)[C@H](C)NC(=O)CNC(=O)[C@H](Cc1ccccc1)NC(=O)[C@H](CC(N)=O)NC(=O)[C@@H]1CCCN1C(=O)[C@H](CO)NC(=O)[C@H](CO)NC(=O)[C@H](Cc1c[nH]cn1)NC(=O)[C@H](CCCNC(=N)N)NC(=O)[C@H](CC(C)C)NC(=O)[C@H](Cc1ccccc1)NC(=O)[C@H](CCCNC(=N)N)NC(=O)[C@H](C)NC(=O)[C@H](CC(C)C)NC(=O)[C@H](CCCNC(=N)N)NC(=O)[C@H](CCC(N)=O)NC(=O)[C@@H](NC(=O)[C@H](C)NC(=O)[C@@H]1CSSC[C@H](NC(=O)[C@@H](N)CCCCNC(=O)CC[C@H](NC(=O)CCCCCCCCCCCCCCCCCCC(=O)O)C(=O)O)C(=O)N[C@@H](CC(N)=O)C(=O)N[C@@H]([C@@H](C)O)C(=O)N[C@@H](C)C(=O)N[C@@H]([C@@H](C)O)C(=O)N1)[C@@H](C)O)C(=O)N1CCC[C@H]1C(=O)N[C@@H](CO)C(=O)N[C@@H](CO)C(=O)N[C@H](C(=O)N[C@@H](CC(N)=O)C(=O)N[C@H](C(=O)NCC(=O)N1CCC[C@H]1C(=O)N[C@@H](CC(N)=O)C(=O)N[C@H](C(=O)N[C@@H](Cc1ccc(O)cc1)C(N)=O)[C@@H](C)O)C(C)C)[C@@H](C)O, also called compound 65)",9.33 nM
2,"K([γGlu-C20 diacid])CNTATCATQRLARFLRHSSPNFGAIPSSTNVGSNTY-NH2 (disulfide 2-7; N-terminus assumed; SMILES CC[C@H](C)[C@H](NC(=O)[C@H](C)NC(=O)CNC(=O)[C@H](Cc1ccccc1)NC(=O)[C@H](CC(N)=O)NC(=O)[C@@H]1CCCN1C(=O)[C@H](CO)NC(=O)[C@H](CO)NC(=O)[C@H](Cc1c[nH]cn1)NC(=O)[C@H](CCCNC(=N)N)NC(=O)[C@H](CC(C)C)NC(=O)[C@H](Cc1ccccc1)NC(=O)[C@H](CCCNC(=N)N)NC(=O)[C@H](C)NC(=O)[C@H](CC(C)C)NC(=O)[C@H](CCCNC(=N)N)NC(=O)[C@H](CCC(N)=O)NC(=O)[C@@H](NC(=O)[C@H](C)NC(=O)[C@@H]1CSSC[C@H](NC(=O)[C@@H](N)CCCCNC(=O)CC[C@H](NC(=O)CCCCCCCCCCCCCCCCCCC(=O)O)C(=O)O)C(=O)N[C@@H](CC(N)=O)C(=O)N[C@@H]([C@@H](C)O)C(=O)N[C@@H](C)C(=O)N[C@@H]([C@@H](C)O)C(=O)N1)[C@@H](C)O)C(=O)N1CCC[C@H]1C(=O)N[C@@H](CO)C(=O)N[C@@H](CO)C(=O)N[C@H](C(=O)N[C@@H](CC(N)=O)C(=O)N[C@H](C(=O)NCC(=O)N[C@@H](CO)C(=O)N[C@@H](CC(N)=O)C(=O)N[C@H](C(=O)N[C@@H](Cc1ccc(O)cc1)C(N)=O)[C@@H](C)O)C(C)C)[C@@H](C)O, also called compound 83) [N^ε1-[(4S)-4-carboxy-4-(19-carboxynonadecanoylamino)butanoyl]-[Arg14,Arg17,Pro21,Pro27]-h-amylin]",16.8 nM
3,"K([γGlu-C20 diacid])CNTATCATQRLANFLRHSSPNFGAIPSSTNVGHNTY-NH2 (disulfide 2-7; N-terminus assumed; SMILES CC[C@H](C)[C@H](NC(=O)[C@H](C)NC(=O)CNC(=O)[C@H](Cc1ccccc1)NC(=O)[C@H](CC(N)=O)NC(=O)[C@@H]1CCCN1C(=O)[C@H](CO)NC(=O)[C@H](CO)NC(=O)[C@H](Cc1c[nH]cn1)NC(=O)[C@H](CCCNC(=N)N)NC(=O)[C@H](CC(C)C)NC(=O)[C@H](Cc1ccccc1)NC(=O)[C@H](CC(N)=O)NC(=O)[C@H](C)NC(=O)[C@H](CC(C)C)NC(=O)[C@H](CCCNC(=N)N)NC(=O)[C@H](CCC(N)=O)NC(=O)[C@@H](NC(=O)[C@H](C)NC(=O)[C@@H]1CSSC[C@H](NC(=O)[C@@H](N)CCCCNC(=O)CC[C@H](NC(=O)CCCCCCCCCCCCCCCCCCC(=O)O)C(=O)O)C(=O)N[C@@H](CC(N)=O)C(=O)N[C@@H]([C@@H](C)O)C(=O)N[C@@H](C)C(=O)N[C@@H]([C@@H](C)O)C(=O)N1)[C@@H](C)O)C(=O)N1CCC[C@H]1C(=O)N[C@@H](CO)C(=O)N[C@@H](CO)C(=O)N[C@H](C(=O)N[C@@H](CC(N)=O)C(=O)N[C@H](C(=O)NCC(=O)N[C@@H](Cc1c[nH]cn1)C(=O)N[C@@H](CC(N)=O)C(=O)N[C@H](C(=O)N[C@@H](Cc1ccc(O)cc1)C(N)=O)[C@@H](C)O)C(C)C)[C@@H](C)O, also called compound 77) [N^ε1-[(4S)-4-carboxy-4-(19-carboxynonadecanoylamino)butanoyl]-[Arg17,Pro21,Pro27,His34]-h-amylin]",5.4 nM
4,"K([γGlu-C20 diacid])CNTATCATQRLANFLRHSSPNFGAIPSSTNVGRNTY-NH2 (disulfide 2-7; N-terminus assumed; SMILES CC[C@H](C)[C@H](NC(=O)[C@H](C)NC(=O)CNC(=O)[C@H](Cc1ccccc1)NC(=O)[C@H](CC(N)=O)NC(=O)[C@@H]1CCCN1C(=O)[C@H](CO)NC(=O)[C@H](CO)NC(=O)[C@H](Cc1c[nH]cn1)NC(=O)[C@H](CCCNC(=N)N)NC(=O)[C@H](CC(C)C)NC(=O)[C@H](Cc1ccccc1)NC(=O)[C@H](CC(N)=O)NC(=O)[C@H](C)NC(=O)[C@H](CC(C)C)NC(=O)[C@H](CCCNC(=N)N)NC(=O)[C@H](CCC(N)=O)NC(=O)[C@@H](NC(=O)[C@H](C)NC(=O)[C@@H]1CSSC[C@H](NC(=O)[C@@H](N)CCCCNC(=O)CC[C@H](NC(=O)CCCCCCCCCCCCCCCCCCC(=O)O)C(=O)O)C(=O)N[C@@H](CC(N)=O)C(=O)N[C@@H]([C@@H](C)O)C(=O)N[C@@H](C)C(=O)N[C@@H]([C@@H](C)O)C(=O)N1)[C@@H](C)O)C(=O)N1CCC[C@H]1C(=O)N[C@@H](CO)C(=O)N[C@@H](CO)C(=O)N[C@H](C(=O)N[C@@H](CC(N)=O)C(=O)N[C@H](C(=O)NCC(=O)N[C@@H](CCCNC(=N)N)C(=O)N[C@@H](CC(N)=O)C(=O)N[C@H](C(=O)N[C@@H](Cc1ccc(O)cc1)C(N)=O)[C@@H](C)O)C(C)C)[C@@H](C)O, also called compound 79) [N^ε1-[(4S)-4-carboxy-4-(19-carboxynonadecanoylamino)butanoyl]-[Arg17,Pro21,Pro27,Arg34]-h-amylin]",3.94 nM
5,"K([γGlu-C20 diacid])CNTATCATQRLANFLRHSSPNFGAIPSSTNVGSHTY-NH2 (disulfide 2-7; N-terminus assumed; SMILES CC[C@H](C)[C@H](NC(=O)[C@H](C)NC(=O)CNC(=O)[C@H](Cc1ccccc1)NC(=O)[C@H](CC(N)=O)NC(=O)[C@@H]1CCCN1C(=O)[C@H](CO)NC(=O)[C@H](CO)NC(=O)[C@H](Cc1c[nH]cn1)NC(=O)[C@H](CCCNC(=N)N)NC(=O)[C@H](CC(C)C)NC(=O)[C@H](Cc1ccccc1)NC(=O)[C@H](CC(N)=O)NC(=O)[C@H](C)NC(=O)[C@H](CC(C)C)NC(=O)[C@H](CCCNC(=N)N)NC(=O)[C@H](CCC(N)=O)NC(=O)[C@@H](NC(=O)[C@H](C)NC(=O)[C@@H]1CSSC[C@H](NC(=O)[C@@H](N)CCCCNC(=O)CC[C@H](NC(=O)CCCCCCCCCCCCCCCCCCC(=O)O)C(=O)O)C(=O)N[C@@H](CC(N)=O)C(=O)N[C@@H]([C@@H](C)O)C(=O)N[C@@H](C)C(=O)N[C@@H]([C@@H](C)O)C(=O)N1)[C@@H](C)O)C(=O)N1CCC[C@H]1C(=O)N[C@@H](CO)C(=O)N[C@@H](CO)C(=O)N[C@H](C(=O)N[C@@H](CC(N)=O)C(=O)N[C@H](C(=O)NCC(=O)N[C@@H](CO)C(=O)N[C@@H](Cc1c[nH]cn1)C(=O)N[C@H](C(=O)N[C@@H](Cc1ccc(O)cc1)C(N)=O)[C@@H](C)O)C(C)C)[C@@H](C)O, also called compound 60) [N^ε1-[(4S)-4-carboxy-4-(19-carboxynonadecanoylamino)butanoyl]-[Arg17,Pro21,Pro27,His35]-h-amylin]",5.36 nM
